Test results as given in patent publication US20040214757.

Experiments:
Test in all cases: EMSA
[1] = target: T1, Oct-2 truncated at PstI (cDNA 655-1134) (Homo sapiens, UniProt P09086 SEQ:199-358)
T1 sequence: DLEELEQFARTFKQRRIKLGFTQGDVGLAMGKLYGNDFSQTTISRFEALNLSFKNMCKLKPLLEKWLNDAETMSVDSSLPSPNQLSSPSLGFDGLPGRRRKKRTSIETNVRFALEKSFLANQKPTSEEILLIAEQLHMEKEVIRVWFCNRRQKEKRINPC
Experimental: (§1) The polypeptides translated in vitro from these RNAs were tested for specific DNA binding by addition of the total translation mix to the DNA-protein gel assay.

[2] = target: Oct-2 (pBS-ATG-oct-2, cDNA 655-1710) (Homo sapiens, UniProt P09086 SEQ:199-466)
Experimental: as §1

[3] = target: Oct-2 truncated at StuI (cDNA 655-1443) (Homo sapiens, UniProt P09086 SEQ:199-461)
Experimental: as §1

Measured: binding result

B1: OCTA octanucleotide probe (dsDNA)
DNA 1: ATGCAAAT
DNA 2: ATTTGCAT
binds: all assays above
